Measurements taken from publication PMC5576371.

Molecular target: Calmodulin (His-CaM) (UniProt P0DP23)
Assay: BLI; ForteBio Octet Red; increasing concentrations of ASPM IQ motif (GST-IQ) to CaM; 1:1 binding model; Kd calculated as Koff/Kon

Substance	Kd	fold increase of Kd against T. truncatus
GST-IQ fusion protein, ASPM 23rd IQ motif and its adjacent 16 amino acid motif, Tursiops truncatus (domain or fragment)	17.7 nM	–
GST-IQ fusion protein, ASPM 23rd IQ motif and its adjacent 16 amino acid motif, Physeter macrocephalus (domain or fragment)	–	2.2 fold
